The labels stand for the following.
T1: MBP-TT8 (Arabidopsis thaliana, UniProt Q9FT81 1-518)
T1 construct: TT8, Arabidopsis thaliana, At4g09820; pMAL-C2X
T1 sequence (looked up): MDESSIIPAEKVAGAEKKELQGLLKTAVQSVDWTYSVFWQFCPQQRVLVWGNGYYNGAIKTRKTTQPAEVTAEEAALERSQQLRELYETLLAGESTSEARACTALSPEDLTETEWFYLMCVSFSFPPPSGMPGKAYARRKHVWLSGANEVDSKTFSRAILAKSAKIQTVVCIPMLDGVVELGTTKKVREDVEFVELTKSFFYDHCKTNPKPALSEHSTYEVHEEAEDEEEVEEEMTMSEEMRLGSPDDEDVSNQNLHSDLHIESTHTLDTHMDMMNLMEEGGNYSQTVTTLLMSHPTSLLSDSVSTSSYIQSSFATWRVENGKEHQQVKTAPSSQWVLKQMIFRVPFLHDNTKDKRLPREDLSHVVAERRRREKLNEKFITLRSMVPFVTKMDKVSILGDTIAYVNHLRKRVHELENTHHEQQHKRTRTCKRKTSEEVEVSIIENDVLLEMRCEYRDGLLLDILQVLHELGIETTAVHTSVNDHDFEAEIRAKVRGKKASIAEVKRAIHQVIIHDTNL

T2: HIS-HAT1 (Arabidopsis thaliana, UniProt P46600 1-282)
T2 construct: HAT1, Arabidopsis thaliana, At4g17460; full-length, in pET28a; pET28a; also called full-length HAT1
T2 sequence (looked up): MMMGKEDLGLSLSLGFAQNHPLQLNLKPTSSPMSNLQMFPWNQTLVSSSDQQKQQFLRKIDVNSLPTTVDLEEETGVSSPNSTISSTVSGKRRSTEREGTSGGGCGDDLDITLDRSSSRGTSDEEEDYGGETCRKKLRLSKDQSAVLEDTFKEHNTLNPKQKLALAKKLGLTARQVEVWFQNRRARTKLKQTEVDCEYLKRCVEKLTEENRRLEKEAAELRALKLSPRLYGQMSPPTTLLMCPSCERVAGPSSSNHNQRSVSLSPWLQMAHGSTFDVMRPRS

T3: MBP-EGL3 (Arabidopsis thaliana, UniProt Q9CAD0 1-596)
T3 construct: EGL3, Arabidopsis thaliana, At1g63650; pMAL-C2X
T3 sequence (looked up): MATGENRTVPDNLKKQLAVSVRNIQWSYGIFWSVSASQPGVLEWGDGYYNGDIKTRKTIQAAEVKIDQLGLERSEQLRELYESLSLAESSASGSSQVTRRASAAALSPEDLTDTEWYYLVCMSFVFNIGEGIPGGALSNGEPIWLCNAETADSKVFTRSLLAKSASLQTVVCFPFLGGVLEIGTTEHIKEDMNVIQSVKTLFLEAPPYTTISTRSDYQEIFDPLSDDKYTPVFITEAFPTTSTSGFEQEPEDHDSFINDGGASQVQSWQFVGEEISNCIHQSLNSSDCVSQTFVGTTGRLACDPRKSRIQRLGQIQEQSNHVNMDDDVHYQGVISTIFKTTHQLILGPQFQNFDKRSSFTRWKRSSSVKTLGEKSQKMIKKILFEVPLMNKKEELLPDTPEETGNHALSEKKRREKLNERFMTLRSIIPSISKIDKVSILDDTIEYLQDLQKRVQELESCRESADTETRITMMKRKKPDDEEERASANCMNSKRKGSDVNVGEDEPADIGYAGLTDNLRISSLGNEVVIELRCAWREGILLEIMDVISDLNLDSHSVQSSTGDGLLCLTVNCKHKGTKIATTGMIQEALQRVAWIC

T4: MBP-HAT1 (Arabidopsis thaliana, UniProt P46600 1-282)
T4 construct: HAT1, Arabidopsis thaliana, At4g17460; full-length, in pMALc-B; pMALc-B; also called full-length HAT1
T4 sequence (looked up): T2 sequence (looked up)

B1: HIS-MYB75 (natural protein, Arabidopsis thaliana, UniProt Q9FE25 1-248, looked up)
chain: MEGSSKGLRKGAWTTEEDSLLRQCINKYGEGKWHQVPVRAGLNRCRKSCRLRWLNYLKPSIKRGKLSSDEVDLLLRLHRLLGNRWSLIAGRLPGRTANDVKNYWNTHLSKKHEPCCKIKMKKRDITPIPTTPALKNNVYKPRPRSFTVNNDCNHLNAPPKVDVNPPCLGLNINNVCDNSIIYNKDKKKDQLVNNLIDGDNMWLEKFLEESQEVDILVPEATTTEKGDTLAFDVDQLWSLFDGETVKFD
notes: MYB75, Arabidopsis thaliana, At1g56650; full-length, in pET28a; pET28a; also called full-length MYB75
B2: MBP-MYB75 (natural protein, Arabidopsis thaliana, UniProt Q9FE25 1-248, looked up)
chain: B1 chain
notes: MYB75, Arabidopsis thaliana, At1g56650; full-length, in pMAL-C2X; pMAL-C2X; also called full-length MYB75
B3: HAT1 C-terminal fragment (pull-down fragment) (domain or fragment, Arabidopsis thaliana, UniProt P46600 234-282, looked up)
chain: SPPTTLLMCPSCERVAGPSSSNHNQRSVSLSPWLQMAHGSTFDVMRPRS
notes: HAT1, Arabidopsis thaliana, At4g17460; also called C-terminus of HAT1; not shown: 6xHis (inferred from the set-up of the methods)

What all share (settings): both partners purified
For one assay, the target named is T1, MBP-TT8. In words: pull-down; competitive HIS pull-down: 5 ug MBP-TT8 or MBP-EGL3 mixed with 5, 10 or 20 ug HIS-HAT1, on Ni-NTA beads with 5 ug HIS-MYB75; 150 mM NaCl, 20 mM Tris, 0.2% Triton X-100, pH 8.0, 4 C, 2 h; anti-MBP blot.
The target of assay [1] is T2, HIS-HAT1. Described as above.
In the next assay the target is T3, MBP-EGL3. The description is as above.
Another assay deals with T4, MBP-HAT1. Put plainly: pull-down; Ni-NTA beads with 5 ug HIS protein incubated with 5 ug MBP protein; 150 mM NaCl, 20 mM Tris, 0.2% Triton X-100, pH 8.0, 4 C, 2 h; anti-MBP blot.
Assay [2] addresses T2, HIS-HAT1. The description is as above.
The assay “MBP-MYB75” addresses B2. The assay is described as above.

For the molecule B1, the binding result with MBP-TT8, with HIS-HAT1 [1], in the assay with MBP-EGL3 and with MBP-HAT1 was “binds” in each case.
B2: the binding result in the assay with HIS-HAT1 [2] is “binds”.
For the molecule B3, the binding result with MBP-MYB75 is on record as “binds”.

The values are drawn from article PMC6443190, “Regulation of anthocyanin accumulation via MYB75/HAT1/TPL-mediated transcriptional repression” (PLoS Genetics, 2019).
